Test results: patent publication US20120178908A1 (Novo Nordisk, published 2012)

Target: T1, hTLT-1.126-162 (TLT-1 stalk peptide) (human)
T1 construct: Made by solid phase peptide synthesis; not glycosylated; also called chain P of the crystal structure
T1 peptide: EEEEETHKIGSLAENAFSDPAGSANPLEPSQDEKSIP
Assay: crystal structure of the Fab0100:hTLT-1.126-162 complex
Description: Crystallogr. 40, 658-674) of the CCP4 suite (Bailey,S. (1994) Acta Crystallogr. Sect. D-Biol. Crystallogr. 50, 760-763). […] Additional crystallographic refinements, using the REFMAC5 software program (Murshudov, G. N. et al. Acta Crystallogr. Sect. D-Biol. Crystallogr. 53, 240-255), followed by computer graphics inspection of the electron density maps, model corrections and building, using the COOT software program (Emsley, P. et al. Acta Crystallogr. Sect. D-Biol. Crystallogr. 60, 2126-2132), were applied. The procedure was cycled until no further significant improvements could be made to the model.
The crystal was allowed to soak for about 15 seconds, then flash frozen in liquid N₂ and during data collection kept at 100 K by a cryogenic N₂ gas stream. Crystallographic data were subsequently collected to 1.85 Å resolution at beam-line BL911-3 (Ursby, T. et al. (2004) AIP Conference Proceedings 705, 1241-1246) at MAX-lab, Lund, Sweden. Space group determination, integration and scaling of the data were made in the XDS software package. Cell parameters for the synchrotron data were determined to be 82.54, 65.32, 108.05 Å, 90°, 95.15° and 90°, for a, b, c, α, β and γ, respectively, and space group was determined to be C2. Rsym for intensities of the data set was calculated to be 6.7%. […]

binding result: binds
B1: Fab0100 (anti-TLT-1 Fab) (Fab, V domains shown)
VH: EVKLLESGGGLVQPGGSLKLSCAASGFDFSRYWMTWVRQAPGKGLEWIGEINPDSSTINYNPSLKDKFIISRDNAKNTLYLQMSEVRSEDTALYYCASGVFTSWGQGTLVTVSA
VL: DVVMTQTPLSLPVSLGDQASISCRSSQSLVHRNGNTYFHWALQKPGQSPKLLIYKVSNRFSGVPDRFSGSGSGTDFTLKISRVEAEDLGVYFCSQSTHVPYTFGGGTKLEIKR
notes: also called Fab 0061 (Fab 0012-LC.C36A; VH.T60N-CH1)
